# Data taken from US20210292393A1 (published 2021).
# Numbering of substitutions follows the chain as printed.
# B1: antibody 364 (antibody, V domains shown)
# VH: EVQLVESGGGLVQPGRSLRLSCTASGFTFGDYAMSWFRQAPGKGLEWVGFIRSKAYGGTTEYAASVKGRFTISRDDSKSIAYLQMNSLKTEDTAVYYCTRFGIDYDYIWGSYRYTTLFDYWGQGTLVTVSS
# VL: not shown
# B2: antibody 494 (antibody, V domains shown)
# VH: EVQLVESGGGLVQPGGSLRLSCAASGFTVSSNYMSWVRQAPGKGLEWVSVIYSGGSTFYADSVKGRFTISRDNSKNTLYLQMNSLRAEDTAVYYCARDSGDQLLDYWGQGTLVTVSS
# VL: DIQLTQSPSFLSASVGDRVTITCRASQGISSYLAWYQQKPGKAPKLLIYAASTLQSGVPSRFSGSGSGTEFTLTISSLQPEDFATYYCQQLNSYPPFTFGPGTKVDIKR
# B3: antibody 562 (antibody, V domains shown)
# VH: QVQLVESGGGVVQPGRSLRLSCAASGFTFSSYAMHWVRQAPGKGLEWVAVISYDGSNKYYADSVKGRFTISRDNSKNTLYLQMNSLRAEDTAVYYCARASSGGYQGPFDPWGQGTLVTVSS
# VL: QSALTQPASVSGSPGQSITISCTGTSSDVGGYNYVSWYQQHPGKAPKLMIYDVSNRPSGVSNRFSGSKSGNTASLTISGLQAEDEADYYCSSYTSSSTLLYVFGTGTKVTVLG
# B4: antibody 414 (antibody, V domains shown)
# VH: QVQLVQSGAEVKKPGASVKVSCKASGYTFTSYYMHWVRQAPGQGLEWMGIINPSGGSTSYAQKFQGRVTMTRDTSTSTVYMELSSLRSEDTAVYYCARDPPGRDFWSGYYFGAPDYYYYYGMDVWGQGTTVTVSS
# VL: DIQMTQSPSSLSASVGDRVTITCRASQGISNYLAWFQQKPGKAPKSLIYAASSLQSGVPSKFSGSGSGTDFTLTISSLQPEDFATYYCQQYNSYPYTFGQGTKLEIKR
# B5: antibody 292 (antibody, V domains shown)
# VH: EVQLVESGGGLIQPGGSLRLSCAASGFTVSSNYMSWVRQAPGKGLEWVSVIYSGGSTYYADSVKGRFTISRDNSKNTLYLQMNSLRAEDTAVYYCARDLQGGGGPWGQGTLVTVSS
# VL: AIQMTQSPSSLSASVGDRVTITCRASQGIRNDLGWYQQKPGKAPKLLIYAASSLQSGVPSRFSGSGSGTDFTLTISSLQPEDFATYYCLQDYNYPRTFGQGTKVEIKR
# B6: antibody 481 (antibody, V domains shown)
# VH: B5 VH with Y58F, D98E, L99V, Q100A, G102T, G103Y, G104D, P105Y
# VL: B2 VL with L4M, F10S, L11V, Y32W, T53S, E70D, L91A, Y94F, P96G, F97G
# B7: antibody 462 (antibody, V domains shown)
# VH: QVQLVESGGGVVQPGRSLRLSCAASGFTFSSYGMHWVRQAPGKGLEWVAVIWYDGNNKYYADSVKGRFTISRDNSKNTLYLQMNSLRAEDTAVYYCAKDPTWFGELPSYYYYGMDVWGQGTTVTVSS
# VL: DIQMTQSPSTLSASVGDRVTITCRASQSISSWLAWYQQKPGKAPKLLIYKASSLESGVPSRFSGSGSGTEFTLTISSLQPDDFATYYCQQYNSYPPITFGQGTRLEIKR
# B8: antibody 506 (antibody, V domains shown)
# VH: QITLKESGPTLVKPTQTLTLTCTFSGFSLSTSGVGVGWIRQPPGKALEWLALIYWDDDKRYSPSLKSRLTITKDTSKNQVVLTMTNMDPVDTATYYCAHHSLSSIFDYWGQGTLVTVSS
# VL: QSALTQPASVSGSPGQSITISCTGTSSDVGDYNYVSWYQQHPGKAPKLMIYEVSNRPSGVSNRFSGSKSGNTASLTISGLQAEDEADYYCSSYTSSSTVFGGGTKLTVLG
# B9: antibody 434 (antibody, V domains shown)
# VH: QVQLVQSGAEVKKPGASVQVSCKASGYTFSDYYIFWVRQAPGQGLEWMGCINPKSGGAIYAQRFQGRVTMTRDTSFNTAYMEMNRLGSDDTAVYYCVTRGPPDIAASGFAWHLDVWGQGTTVTVSS
# VL: DIVMTQSPLSLPVTPGEPASISCRSSQSLLSSNGYNYLEWYLQKPGQSPQLLMYLGSNRASGVPDRFSGSGSGTDFTLKINRVEAEDVGVYYCMQALQTPLTFGGGTKVEIK
# B10: antibody 443 (antibody, V domains shown)
# VH: QMRLEESGPGLVKPSETLSLTCTVAGGSITSSDYFWGWLRQSPGKGLEWIASTYHGGSIQYHPALKSRVTISVDASKNQISLRLSSVTAADTAVYYCARDRGDDGPMGTYYFDHWGQGALVTVSS
# VL: QSVLTQPPSVSGAPGQSVTISCAGSSSNIGAGHDVHWYQQIPGTAPKLLICGNTNRPSGVPERFSGSRSGTSASLAITGLQAEDEAVYYCQSYDPSHVFFGTGTKLTVL
# B11: antibody 474 (antibody, V domains shown)
# VH: EVQLVESGGGLVQPGGSLRLSCAASGFTFSSYWMHWVRQAPGKGLVWVSRINSDGSSTSYADSVKGRFTISRDNAKNTLYRQMNSLRAEDTAVYYCALGPLDIVGSYYYYGMDVWGQGTTVTVSS
# VL: NFMLTQPHSVSESPGKTVTISCTGSSGSIASNYVQWYQQRPGSAPTTVIYEDNQRPSGVPDRFSGSIDSSSNSASLTISGLKTEDEADYYCQSYDSSNQDVVFGGGTKLTVL
# B12: antibody 574 (antibody, V domains shown)
# VH: QVQLVESGGGVVQPGRSLRLSCAASGFTFSSYAMHWVRQAPGKGLEWVAVISYDGSNKYYADSVKGRFTISRDNSKNTLYLQMNSLRAEDTAVYYCARTDRYYGSGAHFDYWGQGTLVTVSS
# VL: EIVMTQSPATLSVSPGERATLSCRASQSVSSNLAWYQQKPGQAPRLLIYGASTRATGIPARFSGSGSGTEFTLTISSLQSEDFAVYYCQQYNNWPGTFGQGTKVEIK
# B13: antibody 570 (antibody, V domains shown)
# VH: QVQLQESGPGLVKPSQTLSLTCTVSGGSISSGSYYWSWIRQPAGKGLEWIGRIYTSGSTNYNPSLKSRVTISVDTSKNQFSLKLSSVTAADTAVYYCAREGQWLYRFDYWGQGTLVTVSS
# VL: not shown
# B14: antibody 419 (antibody, V domains shown)
# VH: QVQLVQSGAEVKKPGASVKVSCKASGYTFTSYYMHWVRQAPGQGLEWMGIINPSGGSTSYAQKFQGRVTMTRDTSTSTVYMELSSLRSEDTAVYYCARDWTQSSGYDYYYGLDVWGQGTTVTVSS
# VL: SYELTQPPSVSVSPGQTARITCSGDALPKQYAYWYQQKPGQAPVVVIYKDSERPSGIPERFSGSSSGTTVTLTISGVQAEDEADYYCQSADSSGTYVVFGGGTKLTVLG
# B15: antibody 408 (antibody, V domains shown)
# VH: QVQLVESGGGVVQPGRSLRLSCAASGFTFSSYAMHWVRQAPGKGLEWVAVISYDGSNKYYADSVKGRFTISRDNSRNTLYLQMNSLRAEDTAVYYCAKGADTPHYSGYDFLSVGYYYYGMDVWGQGTTVTVSS
# VL: DIQMTQSPSSLSASVGDRVTITCRASQSISSYLNWYQQKPGKAPKLLIYAASSFQSGVPSRFSGSRSGTDFTLTISSLQPEDFATYYCQQSYSAPFTFGPGTKVDIKR
# B16: antibody 445 (antibody, V domains shown)
# VH: QVQLVQSGAEVKKPGASVKVSCKASGYTFTSYYMHWVRQAPGQGLEWMGIINPSGGSTSYAQKFQGRVTMTRDTSTSTVYMELSSLRSEDTAVYYCARDPTEVGATSEYYYYGMDVWGQGTTVTVSS
# VL: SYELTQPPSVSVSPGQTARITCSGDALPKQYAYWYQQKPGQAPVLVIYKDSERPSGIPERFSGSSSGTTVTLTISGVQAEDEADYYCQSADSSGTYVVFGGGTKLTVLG
# B17: antibody 333 (antibody, V domains shown)
# VH: QVHLVESGGGVVLPGRSLRLSCSASQFIFSNYDMHWVRQSPGMGLEWVAGISSDGSDKYYIDSVRGRFTISRDNAKNTLFLQMNSLTTEDTAVYSCAKGGGKFGQYWGRGTLVTVSS
# VL: AIQMTQSPSSLSASVGDRVTITCRASQVIRNDLAWFQQKPGEAPNLLVYSASNLQSGVPSRFSGSGSGTDFTLTISSLQPEDFATYYCLQDYSYPYTFGQGTKLDMK
# B18: antibody 351 (antibody, V domains shown)
# VH: HVQLVESGGGVVQPGRSLRLSCAASGFISRNYGMEWVRQAPGQGLEWVAGIWYDGSKKYYADSVKGRFTISRDTSKNTLFLQMDSLRAEDTAVFYCATATKTFCGGDCPPGGMDVWGQGTTVTVST
# VL: SYVLTQPPSVSVAPGKTAWITCVGNNIESESVHWYQQRPGQAPVLVIYYDSDRPSGIPERFFGSNSGNTATLTISRVEAGDEADYYCQVWDSNSDLMVFGGGTKLTVL
# B19: antibody 343 (antibody, V domains shown)
# VH: QVQLVESGGDVVQPGTSLRLSCAASGFTFNNYGFHWVRQAPGKGLEWVALISSDGASTHYADSVKGRFTISRDSSVNTLYLQMNSLSLEDTAVYYCATGHCGTTCYYFDYWGQGTLVSVSS
# VL: DIQVTQSPSYLSASVGDRVTITCRASQTISTFLQWYQQKVGKAPKLLIYAASTLQSGVPSRFSGSGSGTDFSLTISSLQPEDFATYYCQQSYSAPLSFGGGTKVEIK
# B20: antibody 332 (antibody, V domains shown)
# VH: QVTLRESGPALVKPTQTLTLTCTFSGFSLSTSGMCVSWIRQPPGKALEWLALIDWDDDKYYSTSLKTRLTISKDTSKNQVVLTMTNMDPVDTATYYCARIHDDILTGYHYVDYWGQGTLVTVSS
# VL: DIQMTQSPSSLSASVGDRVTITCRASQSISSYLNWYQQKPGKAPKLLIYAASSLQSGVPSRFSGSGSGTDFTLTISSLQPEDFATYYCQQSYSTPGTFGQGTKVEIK
# B21: antibody 328 (antibody, V domains shown)
# VH: QVQLQESGPGLVKPSGTLSLTCAVSGGSISSSNWWSWVRQPPGKGLEWIGEIYHSGSTNYNPSLKSRVTISVDNSKNQFSLKLSSVTAADTAVYYCARESVAAAGISYYYYGMDVWGQGTTVTVSS
# VL: DIQMTQSPSSLSASVGDRVTITCRASQGIRNDLGWYQQKPGKAPKRLIYAASSLQSGVPSRFSGSGSGTEFTLTVSGLQPEDFATYYCLQYNSSPLTFGGGTKVEIK
# Molecular target: T1, SARS-CoV-2 spike protein (nCoV-S Spike Protein Trimer, NIH) (SARS-CoV-2, UniProt P0DTC2 14-1208)
# T1 construct: also called S protein
# Assay: HT-SPR (Carterra LSA), mAb on chip, SARS-CoV-2 spike protein titrated, 25 C
row,Binder,Kd
1,B1,7.61 nM
2,B2,0.0835 nM
3,B3,0.173 nM
4,B4,7.93 nM
5,B5,0.0608 nM
6,B6,0.118 nM
7,B7,7.58 nM
8,B8,0.0491 nM

# Molecular target: T2, SARS-CoV-2 full length spike protein (wild type), expressed on the surface of transiently transfected CHO … (SARS-CoV-2, UniProt P0DTC2 14-1273)
# T2 construct: also called SARS-CoV-2 spike (S) protein; Wild-Type SARS-CoV-2
# Assay: flow cytometry, CHO cells with full-length WT SARS-CoV-2 spike
row,Binder,binding result
1,B9,no binding
2,B10,no binding
3,B11,no binding

# Molecular target: SARS-CoV-2 spike protein (SARS-CoV-2, UniProt P0DTC2 14-1208)
# Assay: HT-SPR, Carterra LSA; mAb coupled to chip, antigen injected; 1:1 fit
Binder,Kd,koff,kon
B12,2.28 nM,0.0003 s⁻¹,132000 M⁻¹ s⁻¹
B13,0.0454 nM,1e-05 s⁻¹,220000 M⁻¹ s⁻¹

# Molecular target: T1, SARS-CoV-2 spike protein (nCoV-S Spike …)
# Assay: HT-SPR (Carterra LSA), mAb on chip, SARS-CoV-2 spike protein titrated, 37 C
row,Binder,Kd
1,B1,0.0233 nM
2,B2,0.225 nM
3,B3,0.138 nM
4,B4,5.21 nM
5,B5,0.0786 nM
6,B6,0.234 nM
7,B7,4.62 nM
8,B8,0.0693 nM

# Molecular target: NCP-CoV (2019-nCoV) Spike Protein (S1 Subunit, His Tag) (SARS-CoV-2, UniProt P0DTC2 16-685)
# Assay: HT-SPR (Carterra LSA), mAb on chip, S1 subunit (His tag) in solution, 25 C
row,Binder,Kd
1,B2,189 nM
2,B14,235 nM
3,B15,171 nM
4,B5,118 nM
5,B6,170 nM
6,B16,613 nM
7,B8,90.9 nM

# Molecular target: T3, SARS-CoV-2 full length spike protein (wild type) (SARS-CoV-2, UniProt P0DTC2 14-1208)
# T3 construct: also called SARS-CoV-2 spike; S protein
# Assay: multiplexed bead assay, flow cytometry; column D
row,Binder,binding result
1,B17,no binding
2,B18,no binding
3,B19,no binding
4,B20,no binding
5,B21,no binding

# Molecular target: 2019 nCoV Spike Protein (RBD, His tag) (SARS-CoV-2, UniProt P0DTC2 329-520)
# Assay: HT-SPR (Carterra LSA), mAb on chip, RBD (His tag) in solution, 25 C
row,Binder,Kd
1,B2,13.5 nM
2,B5,6.78 nM
3,B6,14.1 nM
4,B8,14.7 nM
